Assay results taken from publication PMC6428836, “A complex of novel protease inhibitor, ovostatin homolog, with its cognate proteases in immature mice uterine luminal fluid” (Scientific Reports, 2019).

Target: the molecule itself
Experiment: SEC + other: non-reducing and reducing SDS-PAGE; about 700 kDa on Sephacryl S-400, about 360 kDa in non-reducing SDS-PAGE, traces of the 162 kDa subunit under reduction; tetramer of two disulfide-linked dimers

B1: mouse ovostatin homolog (natural protein, mouse (endogenous in immature mouse ULF), UniProt Q3UU35 20-1456, looked up)
chain: AEPRYILWVSSVVQRFSSEKACLHLLNLNESVSLSVTLEYDGSSTTIFDQPVDEGNFYACADFKVSQMSSEQLAFVALLVQGNTLKISERRSVAIAAEENATFVQTDTPVHKPGDTVHFRVVTLNIWLKPVDDLYPLITVQDPQSNVIFQWINVTTFRNITQLSFQLTPEPILGDYTIVIKTQSGTTVMDHFTVNRDVLPKFEVELTAPETITIADSQFQMVTCAKYTYGQPVQGKAQIKVCRELFSPAHCESNENEICEQFTVQLKDGCASHIINTKVFQLDRSGLFMTLNVNEVVTESGTGVQMSKTHSVFITSVLGTVSFENMDPFYRRGITYFGTLKFSGPNNTPLVDKLLQLELDGKPVGNYTTDENGEARFSINTSEIFGAQISLKAVYVRPRSCHRSSWLSPEYLDAYFSASRFYSQTSSFTKIILEPKQLPCDQEKMFSVLYSLNPEAYKEASDVTFFYLVMVRGGISRSGQKQVRVQAWNGNFSFPISINADLAPSADLFVYTLHPSGEIVADNVRLQIEKCFKNKVSINFSRDKDLPGSNTSVHLQAAPDSFCALRAVDKSALLLNHGQEMTPESVYFTLPYIHQYGYFYNGLNLDDQQAEPCIPQKDLFYNGLYYTPTGNIWDGDLSNLLSNMGLKIFTNLHYRKPEVCSSQENQPLLRTFDHPNERIMMYGGGAPPSSAFHDSVDSISHAKVAIKETVRTNFPRTWIWNLVSVDSSGTANVSFLVPDTITQWEASAFCVNGNAGFGISPKVSLQISQPFFVEVTSPFSVVRSEQSDMVVTVFNYLTTCVEISVQLEASENYEASINTQRNTDSEVLQAGEQKTYVWTIIPKTLGKVNVTVVATSKQSRACPNDASKEQDVHWKDTVVKTMLVEAEGIEKEATQSFLICPKGTKASKQTLLELPSNVVEGSVRSFVTIVGDILGVAMQNLESLLQMPYGCGEQNIAQLASDVYILDYLKATDQLTEELKSKAQRLLSNGYQNHLSFKNYDGSYDVFCQSNQEGSTWLSALSFKTVEKMKEYIFIEETVPKQTLIWLVKKQKSNGCFRRDEKHVDTAQEGREGDQEDIALTAYVVGVFLEVGLNASFPALRNGLYCLEEAFSNGVTNGYTQAILAYVFALAGKEQQAKSLLSILDKSATKTNNMIYWERDEKPETDNSPSFIPSALSGETEKTCYVLLAVLSQDTQDLDYASKIVQWLAQRMNSHGGFSAMQDTTVCLLALTQYMKLTGSNPQNTITLSSEESEEVFYVNRNKRLLVQHSKVSKGHQQYTVDVEGDGCSFIQATLRYNVPLPKEASGFSLSVKTGKSNSSDEFQTKFELTVTLTYTGARESSVTVLVDVKMLSGFTPVVSSTEELKFNSQVTKTDIKNGHVLFYLENVPKEATSLTFSIEQTNHVANIQPAPVTVYSYEKGEYAFDSYNINSISDSQ
notes: ovostatin homolog, mouse, NP_001001179.2; predicted subunit 162 kDa; 360 kDa in non-reducing SDS-PAGE, about 700 kDa by gel filtration; In ULF most subunits are seen as an 88 kDa fragment under reducing conditions, only traces as the 162 kDa subunit; also called mOH; 360 kDa protein; source: endogenous, uterine luminal fluid (ULF) of DES-treated immature ICR mice; also partly purified from it …
stoichiometry N: 4
